The source of these data is patent publication US12383572B2, “Administration of an anti-activin-a compound to a subject” (AMGEN INC., priority 2013, dated 2025).

In test [1] the test system is ovarian tumors in Inhα KO mice. The experiment in a line: sActRIIB single dose, withdrawal and re-administration in female Inhα KO mice: ovarian tumor weight. The test is classed as in vivo, mouse. Here is the method:
Eleven-to-fourteen-week-old female Inhα KO mice with body weight from 19.41 to 26.82 grams were subcutaneously (SC) injected with either 30 mg/kg sActRIIB or PBS. Age-matched WT littermate control mice were injected with PBS and served as baseline controls. The study ended by necropsy 2 weeks after injections. Two cohorts of mice were used in the study. Eleven-to-thirteen-week-old female Inhα KO mice with body weight from 17.7 to 27.4 grams were SC injected with either 30 mg/kg sAcLRIIB or PBS. Age-matched WT littermate control mice were injected with PBS and served as baseline controls. The withdrawal lasted for 8 weeks. At the end of the withdrawal, the sActRIIB treated mice were divided by balanced body weight into 2 groups (Group 3 and Group 4).
Group 2 and Group 3 were euthanized to examine the ovarian tumors. Group 4 received another dose of 30 mg/kg sActRIIB and the mice were euthanized together with the WT mice 4 weeks later (total 12 weeks). Mouse body weights were recorded once per week up to 12 weeks. For necropsy, mice were euthanized in a CO2 chamber. Normal ovaries in WT mice and ovarian tumors in Inhα KO mice were collected and weighed. All results were expressed as the mean±standard error of the mean (SEM). Statistical significance of difference between groups was analyzed using Student's 2-tailed t-test on MS Excel 5.0 software. The Chi-Square test (GraphPad Software Inc, San Diego, CA) was used to examine the differences in animal survival time. Statistical significance between groups is represented by p<0.05 values.

Test [2] has as its system TOV-21G ovarian xenograft tumors. Briefly: sActRIIB and doxorubicin in TOV-21G tumor-bearing nude mice: tumor size and weight. The test is classed as in vivo, human. The settings on record: sActRIIB 10 mg/kg SC 1x/week, DOX 2 mg/kg IP 1x/week; 4-week study. How it is done: (§1) The objective of the present study was to examine the effect of pharmacological administration of sActRIIB, doxorubicin (dox), and sActRIIB plus doxorubicin, respectively, on body weight, tumor growth and muscle mass in nude mice implanted with TOV-21G ovarian xenograft tumors. Eight-week-old female Athymic nude mice were SC injected with 0.2 mL of 5×10^6 TOV-21G cells into the left site of the lower flank of the mice. After 10 days of tumor implantation, the mice were divided into 4 groups by body weight and tumor size and then treated with vehicle, sActRIIB, doxorubicin or the combination of sActRIIB and doxorubicin. In addition, a group of non-tumor bearing mice was used as normal control and received PBS.
(§2) Mice were weighed weekly. Body weight data were recorded longitudinally. Tumor size was measured longitudinally by using an electronic caliper. The following formula was used to calculate actual tumor volume (Tomayko M and Reynolds C, 1989): (Volume of a rectangular solid tumor: Tumor volume (mm^3)=length (mm)×width (mm)×height (mm) of tumor). At the end of the study, mice in all groups were subjected to terminal necropsy and lean carcass weight (excluding skin, adipose tissue, internal organs, and head) was determined by using standard anatomical dissection procedures. […] All results were expressed as the mean±SEM (standard error of the mean). […]

The subject of test [3] is testicular tumors in inh-KO mice. Briefly: Testicular tumor mass by necropsy in male inh-KO mice. Format: in vivo, mouse. The settings on record: 8-week-old male inh-KO mice, single injection 30 mg/kg SC, necropsy 14 days after. How it is done: Inh-KO mice. 12-week-old female and 8-week-old male inh-KO mice with fully established ovarian or testicular tumors received a single injection of PBS or sActRIIB (30 mg/kg, SC). As a control, age-matched wild-type littermates received a single injection of PBS. Ovarian and testicular organ weights were determined by necropsy 14 days after the injection.

A short description of test [4]: sActRIIB and doxorubicin in TOV-21G tumor-bearing nude mice: body weight and muscle mass. The test is classed as in vivo, mouse. Here is the method:
as §1, §2

Test [5] deals with TOV-21G tumors (apoptosis). The experiment in a line: Active caspase-3 immunostaining and TUNEL assay on TOV-21G tumor sections. The test is classed as in vivo, human. The settings on record: TOV-21G xenograft tumors. How it is done:
Zinc-formalin fixed paraffin tumor tissue sections of 4 μm in thickness were prepared. The sections were subjected to antigen retrieval by microwave 3 min in Unmask solution (Vector H-3300) followed by incubation in 10 μg/ml Proteinase-K for 20 min and in 1% H2O2 in dH2O for 10 min at room temperature. The sections were further incubated in 0.1% Tween-20 in PBS for 3 min to permeabilize the cell membrane and in goat serum for 30 min to block non-specific binding. The sections were then incubated at room temperature with specific primary antibody for 3 hours followed by incubation in biotinylated or fluorescently labeled secondary antibody. Substrate developed in Vector SG kit (SK-4700) or DAB and nuclear-counterstained in Vector Fast Red (H-3403) or in hematoxylin. The immunostained tissue sections were analyzed and photographed using a Nikon Eclipse 90i microscope equipped with DS-Ril camera. […]
Cell apoptosis in TOV-21G tumors was analyzed by measuring the amounts of fragmented DNA in the tumor sections using the DeadEnd Fluorometric TUNEL System following the manufacturer's recommended protocols (Promega, G3250). The fluorescein-12-dUTP-labeled DNA was visualized by Nikon fluorescence microscopy.
In general terms: Xenograft models place foreign cells or tissue in a host animal.

The subject of a further test is Smad2 signaling. The experiment in a line: Western blot of phospho-Smad2 in inh-KO tumors. The test is classed as in vivo, mouse. The settings on record: inh-KO mice, increase vs WT controls. How it is done: Protein extracts were prepared from cell cultures or tissues in T-PER tissue protein extraction reagent (Pierce) containing a mixture of protease inhibitors (Roche). A pool of 50 μg total protein for each group containing equal amounts of protein extract isolated from individual animals was separated by NuPAGE 4-12% Bis-Tris gel (Invitrogen) and transferred to PVDF. The membranes were probed with primary antibodies against total Smad2, p-Smad2 or E-cadherin (1:1000; Cell Signaling), endoglin, osteopontin (1:500; R & D Systems), IGFBP-1, IGFBP-2 (1:500; Abcam) followed by HRP-conjugated secondary antibody (1:2000; Cell Signaling). The membranes were stripped and re-probed with antibody against α-tubulin (1:1000; Cell Signaling).

Entries after “also recorded” stand apart in the source; their conditions may differ.

B1: sActRIIB: extracellular domain of human activin type-2B receptor fused to IgG2 Fc; full length SEQ ID NO: 21 (Table 9) (protein, listed as Homo sapiens)
chain: ETRWCIYYNANWELERTNQSGLERCEGEQDKRLHCYASWRNSSGTIELVKKGCWLDDFNCYDRQECVATEENPQVYFCCCEGNFCNERFTHLPEAGGPEVTYEPPPTAPTGGGGSVECPPCPAPPVAGPSVFLFPPKPKDTLMISRTPEVTCVVVDVSHEDPEVQFNWYVDGVEVHNAKTKPREEQFNSTFRVVSVLTVVHQDWLNGKEYKCKVSNKGLPAPIEKTISKTKGQPREPQVYTLPPSREEMTKNQVSLTCLVKGFYPSDIAVEWESNGQPENNYKTTPPMLDSDGSFFLYSKLTVDKSRWQQGNVFSCSVMHEALHNHYTQKSLSLSPGK
Regarding B1, in test [1] (30 mg/kg SC), the “ovarian tumor weight at 8 weeks after withdrawal from the initial single dose” value is listed as “grown in size similar to that of the PBS-treated Inhα KO mice” and the “ovarian tumor weight two weeks after a single dose” value is “reduced to the WT control level”. Besides, the “ovarian tumor mass at week 12 (4 weeks after re-administration)” value in test [1] (re-administration 30 mg/kg at week 8, 30 mg/kg) is “effectively reduced the tumor mass; also recorded: effectively regressed the ovarian tumor mass to the size of the WT control group”. In test [2], the “tumor size and tumor weight vs vehicle-treated TOV-21G group” value was “capable of inhibiting TOV-21G tumor growth”. For the same molecule, in test [3], the testicular tumor mass entry is recorded as “dramatic regression of testicular tumor masses to the WT control levels”. In addition, in test [4] (TOV-21G tumor-bearing nude mice, sActRIIB 10 mg/kg SC 1x/week, DOX 2 mg/kg IP 1x/week), the body weight result was “effectively prevented the weight loss”. Also, in test [4] (TOV-21G-implanted nude mice, necropsy at end of 4-week experiment), the “lean carcass weight and calf muscle mass” value is “prevented the loss in lean carcass weight and calf muscle mass”. In addition, the “active caspase-3 and DNA fragmentation (TUNEL)” value in test [5] was “profound increases in active caspase-3 and DNA fragmentation”. Also, the “phospho-Smad2 in the tumor tissues” value in the test with Smad2 signaling is “eliminated this increase in phospho-Smad2”.
